From the supplement of paper PMC11865577

The sequences below were run on TO-3-N3-2 (biotin conjugate) (assay: pull-down binding Z-score (relative to library population); higher = stronger binding). Conditions: RNA library: Library-2.
Summary of the method: (§1)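 A heat-folded, dye-end-labelled (Cy5 or Cy3) RNA library (1 μg, phosphate/NaCl/KCl buffer) was exposed for 60 min at 25 °C to streptavidin beads holding 100 pmol of biotin-conjugated small molecule. RNA retained on the beads was eluted in hot SDS and hybridised to a DNA barcode microarray for 20 h at 55.5 °C. Binding scores were Z-scores against the library mean and standard deviation, calculated after subtracting beads alone and taking trimmed means of replicate probes.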

Row | Sequence | pull-down binding Z-score
1 | UCAGGUGAAUGUGUCUGG [hsa-mir-3916] | -0.427
2 | UCAGUUUUGUAGCAUCAAAACU [hsa-mir-4521] | -0.161
3 | UCAUAAAGAUGAUC [hsa-mir-8067] | 0.0624
4 | UCAUAAAUAUUUUAAGGAAUGACCCGGCCCUGGGG [hsa-mir-4285] | 0.31
5 | UCAUUUAUGUGAACUAAAAUAUAAAUUU [hsa-mir-513a-2_513a-1] | -0.361
6 | UCCAACCUGAAAUCCUUCUGUAGGUUGAG [hsa-mir-5702] | -0.273
7 | UCCACAAGGAGGGGAUGACCCUUGUGGG [hsa-mir-4437] | 3.06
8 | UCCACACUGACAAGGGCCGUGGGG [hsa-mir-3191] | 0.217
9 | UCCACCCCCAGAGAAUCCCUAAACCGGGGGUGGA [hsa-mir-1289-1] | -0.243
10 | UCCACCCUGGUCCAGGUCCACAGCAGUGGA [hsa-mir-4644] | 0.0936
11 | UCCACCUAGACGGGCCUGGGUCAA [hsa-mir-4698] | -0.0391
12 | UCCAGACGGAGAUGCGA [hsa-mir-611] | -0.000716
13 | UCCAGAGGCAUCCCUAACCCAGAAUCUUUUGACUGUCCUCUGGA [hsa-mir-4306] | -0.358
14 | UCCAGCUGUGUGAUAUUCUGCUG [hsa-mir-19b-1] | 0.159
15 | UCCAGGAUCUGGGUUUUGAGGUCUUGG [hsa-mir-4309] | 0.267
16 | UCCAGGCAUCUGUGUCUG [hsa-mir-4669] | 0.402
17 | UCCAGGGCUCCUGACACCUGGA [hsa-mir-6861] | -0.533
18 | UCCAGUGUGGCUCGGAGGCUGGA [hsa-mir-139] | 0.381
19 | UCCAUGAAAAGAACCCAUGGG [hsa-mir-4471] | 0.0519

Row | Sequence | pull-down binding Z-score
20 | UCCCAGCCACUCUGGAGG [hsa-mir-4419b] | -0.194
21 | UCCCAGGAAAUUCACUUUAGGAAGUCCUAGGA [hsa-mir-5571] | -0.303
22 | UCCCAGGCCCUUCCUCCAAUACUGGGA [hsa-mir-4666b] | -0.0987
23 | UCCCAUUUCCACAUGGAGAGUGGAGCCCAGA [hsa-mir-3123] | 0.0927
24 | UCCCCAGAAGCUGAGGAUUAGGGGA [hsa-mir-6503] | -0.131
25 | UCCCCUAGCGCGCCUUCUGGAGA [hsa-mir-3188] | -0.0116
26 | UCCCCUCAGGA [hsa-mir-5703] | -0.595
27 | UCCCUUCCUGGACACACAGGAGGAGA [hsa-mir-5680] | -0.8
28 | UCCGGCCGGCCAUGCUGGCGGGG [hsa-mir-762] | -0.506
29 | UCCUAGGCGGGUCGCUGCGGUACCUCCCUCCUGUCUGUGGCGGUGGGAUCCCGUGGCCGUGUUUUCCUGGUG [hsa-mir-663b] | -0.0831
30 | UCCUCAGACCAGGUGGCUCCCGAGCCACCCCAGGCUGUAGG [hsa-mir-2392] | -0.183
31 | UCCUCCACAAAUGCGUGUGGAGGA [hsa-mir-4633] | -0.698
32 | UCCUCCAUGCUUGGAAAAUGCAGGGAGGA [hsa-mir-764] | -0.61
33 | UCCUCUCCUGGUCUGGGAGGAUAGAAGAGAGGA [hsa-mir-5191] | -0.219
34 | UCCUGAGACAGGA [hsa-mir-4261] | -0.5
35 | UCCUGAGCUAGGAGGAUUAGGA [hsa-mir-5093] | -0.0611
36 | UCCUGAUCUGAUGGAAGUCAUGA [hsa-mir-7843] | -0.16
37 | UCCUGAUGGUCCCCUCCCCAGGG [hsa-mir-185] | -0.187
38 | UCCUGGGAAGCAUGGUAGCCAGGA [hsa-mir-5192] | 0.431

Row | Sequence | pull-down binding Z-score
39 | UCCUGUAGUGUCUUAUAUACAAUACAGUAGGA [hsa-mir-613] | -0.802
40 | UCCUUUUCUCUACCUUGUAGAGAAGCA [hsa-mir-3609] | -0.379
41 | UCGAGAGGUCAGAGGAUUGCUCCUGA [hsa-mir-5585] | -0.227
42 | UCGCCUAGGGCUCUGAGCAGGGCA [hsa-mir-211] | 0.463
43 | UCGGCACUAUUGUGACUGU [hsa-mir-7855] | -0.16
44 | UCGUCAGUGUUUGA [hsa-mir-8073] | -0.295
45 | UCUAUCUGUAUUCUUACUGAAGGGA [hsa-mir-504] | -0.42
46 | UCUCAAAAUAAUUCUGCAGUGAGA [hsa-mir-4524b] | 0.0866
47 | UCUCAAUCCAUUCAUAUUGAAA [hsa-mir-3662] | -0.33
48 | UCUGCAGGUUCGCACUGAUGCCUGCUCG [hsa-mir-6726] | -0.102
49 | UCUGCUUUAUUUCAUCAAAGCAGA [hsa-mir-4773-1] | -0.676
50 | UCUGCUUUGAUGAAAUAAAGCAGA [hsa-mir-4773-2] | -0.423
51 | UCUGGGGAGAGAGUCCUCUUUUCAGC [hsa-mir-8082] | -0.234
52 | UCUGUUGCUUGAAAGAAGAGA [hsa-mir-526a-1] | -0.154
53 | UCUGUUGUCUGAAAGAAAACA [hsa-mir-518b_518c] | 0.0546
54 | UCUGUUUGUUUUCUCUUAAACA [hsa-mir-519d] | -0.553
55 | UCUGUUUUAAGUAACAGA [hsa-mir-7705] | -0.214
56 | UCUUAGACUAUUACAAGA [hsa-mir-3672] | 0.0159
57 | UCUUAGCACGGGGUCUAAGG [hsa-mir-4747] | -0.0231

What follows are sequences tested on G-clamp-N3 (biotin conjugate) in the same assay as above. Conditions: RNA library: Library-1 (pre-miRNA loops + repeats).
Summary of the method: as §1

Row | Sequence | pull-down binding Z-score
58 | UAUUUCAAAAGACUAGAGGUAGGAAAUGAG [hsa-mir-3975] | 2.94
59 | UAUUUUGUUAUUCUGGUCACAGAAUGACCUAGUA [hsa-mir-630] | -1.22
60 | UCAAACAAGUUUCCAAAUUGUUUGA [hsa-mir-488] | -0.178
61 | UCACAAUUGCGCUACAGAACUGUUGA [hsa-mir-203b] | 0.254
62 | UCACAGGGCUCAGGGAAUGUGUCUGCACCUGUGA [hsa-mir-587] | 0.296
63 | UCACAGUUGGUUUCUGACACGUGG [hsa-mir-4535] | 0.283
64 | UCACUGCUGCUGGCGCCCUGA [hsa-mir-943] | -0.764
65 | UCACUGUGAACAGUCUCAGUCAGUGA [hsa-mir-183] | -0.0454
66 | UCAGACACAUCAGAUCCCUUAUCUGUAAAAUGGGCAUGA [hsa-mir-640] | 0.152
67 | UCAGAUAUUUAAGUUAACAGUAUUUGA [hsa-mir-580] | 0.0815
68 | UCAGCACCUGAACGCCAAGGCUGG [hsa-mir-3150a] | 0.168
69 | UCAGCCCCAUAUGUAUCUGAAGGCUGA [hsa-mir-5694] | -0.92
70 | UCAGCUGUAAUACAUGGAUUGGCUGG [hsa-mir-30b] | 0.592
71 | UCAGCUGUGAGCUCAAGGUGGCUGG [hsa-mir-30c-1] | 1.32
72 | UCAGCUGUGGAAAGUAAGAAAGCUGG [hsa-mir-30c-2] | -0.0598
73 | UCAGGAUCUACUCAUGUCGUCUUUGG [hsa-mir-573] | -1.01
74 | UCAGGCUUUAAUGUUUGAAGUAAUGUCAGU [hsa-mir-6874] | 0.286
75 | UCAGGGAGAAAGUGCAUACAGCCCCUG [hsa-mir-328] | -0.344
76 | UCAGGUGAAUGUGUCUGG [hsa-mir-3916] | -1.06

Row | Sequence | pull-down binding Z-score
77 | UCAGUUUUGUAGCAUCAAAACU [hsa-mir-4521] | -0.216
78 | UCAUAAAGAUGAUC [hsa-mir-8067] | -0.0232
79 | UCAUAAAUAUUUUAAGGAAUGACCCGGCCCUGGGG [hsa-mir-4285] | -0.171
80 | UCAUUUAUGUGAACUAAAAUAUAAAUUU [hsa-mir-513a-2_513a-1] | -1.8
81 | UCCAACCUGAAAUCCUUCUGUAGGUUGAG [hsa-mir-5702] | 1.18
82 | UCCACAAGGAGGGGAUGACCCUUGUGGG [hsa-mir-4437] | -0.125
83 | UCCACACUGACAAGGGCCGUGGGG [hsa-mir-3191] | -0.843
84 | UCCACCCCCAGAGAAUCCCUAAACCGGGGGUGGA [hsa-mir-1289-1] | -1.69
85 | UCCACCCUGGUCCAGGUCCACAGCAGUGGA [hsa-mir-4644] | -0.617
86 | UCCACCUAGACGGGCCUGGGUCAA [hsa-mir-4698] | -0.781
87 | UCCAGACGGAGAUGCGA [hsa-mir-611] | -1.18
88 | UCCAGAGGCAUCCCUAACCCAGAAUCUUUUGACUGUCCUCUGGA [hsa-mir-4306] | -0.668
89 | UCCAGCUGUGUGAUAUUCUGCUG [hsa-mir-19b-1] | -0.727
90 | UCCAGGAUCUGGGUUUUGAGGUCUUGG [hsa-mir-4309] | 0.525
91 | UCCAGGCAUCUGUGUCUG [hsa-mir-4669] | -0.0379
92 | UCCAGGGCUCCUGACACCUGGA [hsa-mir-6861] | -0.943
93 | UCCAGUGUGGCUCGGAGGCUGGA [hsa-mir-139] | 3.31
94 | UCCAUGAAAAGAACCCAUGGG [hsa-mir-4471] | -0.734
